Source: a protein production outcome set (Wang et al. 2014)

Experiment: label from the status in PepcDB records
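Also: failed if final PepcDB status was selected cloned or expressed and not failed if soluble or beyond.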

In the case of “MAKNQSGSIFNTKVTIKYDKEKIIKLSSEMFSEDLCIQCGRCCMIHVYTTDEKIDPEIVYCNHLDVETKRCKIYKNRFNKEKECLSMLEAILTSALPKDCPYVKNYPSYEEPWFYGLLRGKNLK”, the protein production is reported as “failed”.
For “MARGDEGGENMIKIYTLGGYEEVGKNMTAVEYEGEVVIIDMGIRLDRVLIHEDVEFQKMSSKDLRKLGAIPDDRPIRDKKVVAIALSHGHLDHIGAVGKLAPHYPDVPIYGTPYTIRLAKSEIKGEEYFEVTNPLYETNYGEIVQVSENLAIEFVQVTHSIPHSSIVVIHTPEGAVVYACDYKFDNNHPYGEKPDYKRLKELGKEGVKVLIAESTRVAEETKTPSEAVAKMLLEDFFLYEGMEADGLIATTFASHIARLQELIEIANKMGRQAIFIGRSLAKYTGIAKQLGLIKMKGSRVLRSPNAVSKVLKEVSQARENYLLIVTGHQGEPGAILTRMANGELYDIGPRDTVVFSAGVIPNPLNIAQRYALETKLKMRGVRMIKDLHVSGHASKEDHRYLIRMLNPEYIVPAHGEFRMLTHYAELAEEEGYRIGKDVFISRNGHIVEII”, the protein production was “failed”.
With “MILPPAFHAALLSGGNGRESKLPWVALGLAWLLAVLALLGPSWQRVEQTSQKPADPLVVLLELTPQMLANDVPPDRLEQARHKLLDLLQLRSDAQTAIVVYAGSAHTLVPLSDDLATSRNLLDALKPSIMPQAGQRADLALLKALKLLDQGALGQGRVLLMASSLNEEERQGIRQALKGDAPQLLMLGFGSRDGAPVAQEDGSYLKDDQGAILVSRLDSPDLKHFIGDVGGRYRQARLDDSDLRGLGLLGGPQGLRSDGQTLRLDTWADQGYWLLLPLLLLAACAGRRGWLFCLPLLLFAVPQPSYAFDFNDLWLRPDQQGQRLLQQQRPAEAARHFQDPQWQGVALYEAGNYTAAAERFAEGNDARAHYNRGNALARSGELEAAIDAYEQALERQPDLQPALQNKALVESLLQQQQAQTQTPPPAKKPDTPEGDDTRPGPSGAATQPPPGSNGPQDPAQAPANEGDTPPPDPQAAGHSEVPGSELDDQHTTTPLRPVEDSLDAEHQQALEQWLRKIPDDPGELLRRKFWYEQQQHQDQGKTR” the protein production was “failed”.
For “MGHHHHHHSHMKKDPTLQQAHDTMRFFRRGGSLRMLLDDDVTQPLNTVYRYAMQLMEVKEFAGAARLFQLLTIYDAWSFDYWFRLGECCQAQKHWGEAIYAYGRAAQIKIDAPQAPWAAAECYLACDNVCYAIKALKAVVRICGEVSEHQILRLRAEKMLQQLSDRS”, the protein production was “failed”.
With “RSSEWLEKWQFVNGRFREHLQTISSEDVSFEGNLYRILQHLVPENSSLFVGNSMPIRDVDTFFEKQDRPFRIYSNRGANGIDGVVSSAMGVCEGTKAPVTLVIGDLSFYHDLNGLLAAKKLGIPLTVILVNNDGGGIFSFLPQASEKTHFEDLFGTPTGLDFKHAAALYGGTYSCPASWDEFKTAYAPQADKPGLHLIEIKTDRQSRVQLHRDMLNEAVREVKKQWEL” the protein production was “failed”.
For “MVLAVLFPTYPAYEFAGYALPGVSTTLGVFSLTVLTNTVLFALAYPLVLGARNALTGNVSVVMFVGRRVAADDLATVHGSLLESSAGGFTRSGLDLDALRMYLRWRDCTLADLRSDPGLRHPDTLPDTPGDPTDGAVATDGSGDPWGAAAFLADIDHSAYGTTPAQLRDGLDLITDHDDVWVTPGVPFLLPLFAGLVVALTFGDVLFYVLDALGFAAA”, the protein production was “failed”.
In the case of “MDPTVSLQLSVDRSSPVPLYFQLSQQLEAAIEHGTLTPGSLLGNEIELAARLGLSRPTVRQAIQSLVDKGLLVRRRGVGTQVVHSQVKRPLELSSLYDDLEAAGQRPATQVLLNTLVPASAEVAAALGVAEGSDVHQVERLRLAHGEPMAYLCNYLPTGLLGLDSEQLEATGLYRLMRAAGITLHSARQSVGARAATAVEGERLGEPEGAPLLTMQRTTFDDTGRAVEFGTHTYRASRYSFEFQLLVRP”, the protein production is reported as “failed”.
For “MTLAPRHLRIEQRGRVLQVLLDNPPANFLTTAVMQELADLLEDLEQRQDIGAVILSGAADGVFLTHFDVDEIERAVAPITFSMPAWLTRLLLESESLLRHLPGARKLLRRTLLAGVADMNLFHEVTAHMRRMDKVFIAAINGLALGGGCELALACDLRLMAEDDQVERFLGQPEVLIGLIPGGGGTQMLARSLGVARALELCLEGQLLEPRQALALGLVNGLAPAEELLEAADALAQRLSRRSPQAVRLIKRSIYQAASRDWTEGMASEKAGFLSAASQGNTRRAMREYIERVRTITREERPFRRADFDDLTEGNAID”, the protein production was “failed”.
For “MQPEITSYRHPATGTVSYLVVDPATFLCAIVDPVLDFDPVTEEIDTRFVDAIIADIRAKDLGPTWILETGLHTGHLSAAGHLKYETGASVCIGAGVVESLKRLAPQFGETMVDLDGWDFDKLAQDGDTFPMGGLEITPIALTGRLPGAVAYRMADMVFTGDLVLAPAEGSGRCDIPGADAGKAWDDARKILALPPETRIMPGVSATAACESTVADAKASNIQLNDTIDQLDFIALRTAADAFLPDPELAAAALRVAIRAGRPPSPPESGPRFPAVDLSKL”, the protein production was “failed”.
For “MLDPILLLGLVVAVLAMSLVAQALSSYFRIPFIIFLLIEGIIAGPEVLNLLNPALYVDGLSTIVAISVSVIVFDGGLHIDLKHIRMVQESVLKLTTIGVFVTFLGTTVLTSLLIEIPLELAALFGALVTATGPTVITPIVRNIQISHKLGKILELEGVLNDAASVILAAMVFEWVAAELSGTDAVVFILYRLGIGIALGSLSGFALRWFFTRGKAISNRTARLVSLTAVFSCFVFSEYLGNESGILAVAIFGIILGTSDFPYKDTIKEFKSDIVIVMLSLIFILLAAMIKFEYILRIGASGVALVLLLIFVIRPFAVFVSMWNSQIGTNEKLFISFVGPRGVVPTAVATYFAIKLDSMGIPGGQTLVGLVFLTVIITVFMSGSLSKKVAEVLEVIPMEILIIGGGKVGRILAERFDKRGENVVVVDISEDNCKKCMELGIRTVQGDAGDVNVLKKAGIENAKYVVATTNQDNTNLLFCQLAKASFGFRGDQLVARVNEIENLQAFWNLGIRSMSPAMTTAVVLDNMIGRPHLFSMCEVGGEGEMMEVKVTNPRVIGKAIKDIQFPEKSLLVMVQRGSDSIIAHGNLVLEYEDIVTVIGEGDAAKQTAAILHK”, the protein production was “failed”.
For “MKGIMVQGTASDVGKSLICTALCRIFARRGYKVTPFKSQNMSNNSYITVEGLEIGRAQGIQAEAAMEEASVYMNPILLKPRNDREAEIVCFGQAVDTVSGVKYRDGFYKRGLEAIKQALATLSQSFDMVVIEGAGSPVEVNLNDRELVNMKVAELADVPVILVADIERGGVFASLYGTLELLQPNERKRVVGIIVNKFRGDPELFSSGVQWIEQHLGVPVLGVLPHLPGVRIEGEDSLSKGQVTSVLPRDQSIDIAVLDLPYLSNYTDLEPFRYEEDVAIRFVSSVDALGRPDAIILPGTKSTFHDLQILKEKGFKERLHEYVTTDGTVVAICGGFQMLGHRLIDVAGSDTGIKGATIDGLDLAPVETRFAEKKKTVRSLGQLLHPFGTAKDIYGFEIHLGETDIVDPSIPAFLRVGNHTDGVYLHEGRLIGTYFHHLFFNDDFRSGWLNTLRRKKGLRERPTVELEKCRRASYDQLADEVERVLHVDSLLEKMERWGETSLEHHHHHH”, the protein production was “not failed”.
In the case of “MKIKFKRLDYQEQCRDQILGVFKGIDLKEPENDAQRISNPVFEIGAIKDLLLENIENLRSKQKITQGSVGIDKSLNCDILMETGTGKTFCFLECVYALHKNHHLSKFIVLTPSNAIKLGVLKSVEITREFFKSEYSNTHLESYEDIERFILASNHKCCVLVMTFSAFNKEKNTINKSCLENTNLFNGATSYMQALVSMRPIVIMDEPHRFLGDKTKKYLEQLNALLTLRFGATFKDDYNNLIYTLDSKKAFDCALVKSISVASVGESNECFLELKGIEKKEAAINYTDLENKTQSVKVKEHDNLGVVTQISALEDYIVEKITKTEIRFLNGFNLLLDQKEPFSHLLEGEQEVMLKEAIKSHFEREEGLFKKGIKALCMVFISGVNSYLSENEKPAKLALLFEKLYQQKLEEVLKKPLDENYRAYLECTREDIKKVHGGYFAKSKKEGDETKTIELILKEKEKLLSFDSDLRFIFSQWALQEGWDNPNVMTICKLAPSHSNITKLQQIGRGLRLAVNDKGERITKEHADFDFVNELVVIVPQVEGDFVGAIQQEISEHSLIKQEFSAEELEKSGVVKKGRYGFLLETLEGLGFGEKTGDENFKLTLNQNEFLEKEPELEKLKDEKYLDFEKLKDFLKDRLIGNSRVRDKNERKSEKIKINKENFKKFETLWESLNHQARIAYAIDSESLIDEIVKNINSSFNVSSKIVSVTTHKKVETMGNNAKTEIFERENACVWSLHEFISALSNKVKLSFKSVAKVLENIDENKFNEIKKNEQEGLRRLEELFLEIIYQNIKDKISYQMRETTIKNRKNDAFYDEKGEIREFLDGSLGADKYEIKNSSVREKCLYENFMQVDSEIEKDTIEESNDTKIIVFGKLPRVKIPIGLNQTYSPDFGYVVENNDKKVLLVVETKGVDKKSELRPEEERKISTAKKFFEALKKQGVNIEYKTKMEKDQLSALINEVLNRKD”, the protein production is reported as “failed”.
In the case of “METKGTGMTVNTVDVSAGRAQQVLREGWAAQRAGALTTSWMLHGRPGVGKTEIVRQLAAEQGARFYDLRLTTIESQDLRGLPYYDHETKKTQWYRPEDLPDDPDRPSLLFLDELTAAPPHLHPAVYGLLLERRVGPHILPDNVFLVAAGNMVEDGAVAYEMGTALSDRLIHLQVRATASDWLESYAVPRTLHPAVLAFIRMRPDLLETTAEALDRGLMISTTPRSWDRVSRIMGAVQDRALRRIMVAGTVGEAVAAEFMLVADDIEASVSVERLLNAAPHERIMLYPESMHGLHALIYGLVGALGPTTAVPVIDVMAGIRTLDVHRSDASFARMPLAELCTHGFEMAIRRGLEQGLAEDFLGHPAYAAYASERQAMGLELEHHHHHH”, the protein production is reported as “failed”.
For “MQLSSLTAVSPVDGRYAGKTQALRPIFSEYGLIRFRVMVEVRWLQRLAAHPQITEVPAFSAQANAILNTLAEDFSVEHAERVKEIERTTNHDVKAVEYLLKEQAAKLPELENVSEFIHFACTSEDINNLSHALMLREGRDTVMLPLMRQIADAIRELAIRFADVPMLSRTHGQPASPTTLGKELANVVYRLERQITQIAAVPLLGKINGAVGNYNAHLSAYADIDWEANARAFIEDELGLGFNPYTTQIEPHDYIAELFDAVARFNTILIDFDRDIWGYISLGYFKQRTIAGEIGSSTMPHKVNPIDFENSEGNLGIANALFQHLASKLPVSRWQRDLTDSTVLRNLGVGFAHSVIAYEASLKGISKLELNEQRIAADLDACWEVLAEPIQTVMRRYNIENPYEKLKELTRGKGIGPEALQTFIDGLDMPAQAKAELKKLTPANYIGNAAAQAKRI”, the protein production was “not failed”.
With “SGRKRLITDSYPVVKRREGPAGHSKGELAPELGEEPQPRDEEEAELELLRQFDLAWQYGPCTGITRLQRWCRAKHMGLEPPPEVWQVLKTHPGDPRFQCSLWHLYPL” the protein production was “failed”.
For “MFRKLAAECFGTFWLVFGGCGSAVLAAGFPELGIGFAGVALAFGLTVLTMAFAVGHISGGHFNPAVTIGLWAGGRFPAKEVVGYVIAQVVGGIVAAALLYLIASGKTGFDAAASGFASNGYGEHSPGGYSMLSALVVELVLSAGFLLVIHGATDKFAPAGFAPIAIGLALTLIHLISIPVTNTSVNPARSTAVAIFQGGWALEQLWFFWVVPIVGGIIGGLIYRTLLEKRD”, the protein production was “not failed”.
For “MQRISVIVPMYNEARHITRTLDSVLRAARAATLDCELIVVDNGSTDQGPQRARELGARVLLCPGIGIGALRNRGAAVATGDSLAFLDADIEVPGNWLQLWQQAHAEQRAEVFALDCAAPASAPWFARAWQRRSLAGDPQPRLLPWMPTPNLCLQRAWFERVGGFNEQLRTGEDKDFGLRLHAAGARQLSLPQPQVLHWGYEASWAEWAGKERWRQGSHVQLLKGSGLSLRLLRFPLLCLACALLSLVALLCLLAGLPGAAGLCLLLGALAPLALAVRQGLRQRDPLFVLQLWLLHWVRLHLGALALVQALFNRSAERPDRG”, the protein production was “failed”.
